Source: paper doi:10.1101/2021.03.07.432812 (bioRxiv, 2021)
Blank lines part the entries; values can stand above or below the binder they belong to. Where no end group is shown, it is not given here. [ ]: non-standard residue; d: D form. Lys(Me3) = C[N+](C)(C)CCCC[C@H](N)C(=O)O; Lys(Me2) = CN(C)CCCC[C@H](N)C(=O)O; Lys(Me) = CNCCCC[C@H](N)C(=O)O

Assays:
[1] = target: T1, Spindlin1_(50-262) bound to DOCpep3 (human | , UniProt Q9Y657 50-262; Q9BUA3 256-281); assay: ITC
T1 chain 1: […]
T1 chain 2: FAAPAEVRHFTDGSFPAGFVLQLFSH

[2] = target: Spindlin1_(50-262) bound to DOCpep(1-3) (human | , UniProt Q9Y657 50-262; Q9BUA3 188-281); assay: ITC
[3] = target: T2, Human Spindlin1 50-262 (human, UniProt Q9Y657 50-262); assay: ITC
[4] = target: Spindlin1 Y177A (human, UniProt Q9Y657 50-262, Y177A); assay: ITC
[5] = target: Spindlin1 W151A (human, UniProt Q9Y657 50-262, W151A); assay: ITC
[6] = target: Spindlin1 F141A (human, UniProt Q9Y657 50-262, F141A); assay: ITC
[7] = target: T2, Human Spindlin1 50-262; assay: thermal shift assay
[8] = target: the molecule itself; assay: SEC
[9] = target: the molecule itself; assay: native gel or EMSA

Chain of Spindlin1 Y177A (Q9Y657 50-262 Y177A): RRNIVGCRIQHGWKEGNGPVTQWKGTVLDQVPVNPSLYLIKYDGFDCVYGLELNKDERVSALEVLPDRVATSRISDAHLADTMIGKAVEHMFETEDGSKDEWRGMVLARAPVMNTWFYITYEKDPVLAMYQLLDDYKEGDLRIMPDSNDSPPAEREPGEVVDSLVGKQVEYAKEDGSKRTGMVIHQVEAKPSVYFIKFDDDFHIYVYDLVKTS
Chain of Spindlin1 F141A (Q9Y657 50-262 F141A): as the sequence (Q9Y657 50-262 Y177A) above, with F92A, A128Y counted along it
Chain of Spindlin1 W151A (Q9Y657 50-262 W151A): as the sequence (Q9Y657 50-262 Y177A) above, with W102A, A128Y counted along it

Binder: LPKRSRPRG [DOCpep1, SPIN•DOC 187-195 peptide]
- Kd [3]: 78 µM

Binder: LPARSRPRG [DOCpep1 K189A peptide]
- fold reduction of binding against wild-type DOCpep1 [3]: 9 fold

Binder: LPKRSAPRG [DOCpep1 R192A peptide]
- fold reduction of binding against wild-type DOCpep1 [3]: 11 fold

B3: full-length SPIN•DOC with N-terminal 6xHis tag, co-expressed with Spindlin1 (natural protein, UniProt Q9BUA3 1-381, looked up)
chain: MALKAEGAALDCFEVTLKCEEGEDEEEAMVVAVIPRPEPMLRVTQQEKTPPPRPSPLEAGSDGCEEPKQQVSWEQEFLVGSSPGGSGRALCMVCGAEIRAPSADTARSHILEQHPHTLDLSPSEKSNILEAWSEGVALLQDVRAEQPSPPNSDSGQDAHPDPDANPDAARMPAEIVVLLDSEDNPSLPKRSRPRGLRPLELPAVPATEPGNKKPRGQRWKEPPGEEPVRKKRGRPMTKNLDPDPEPPSPDSPTETFAAPAEVRHFTDGSFPAGFVLQLFSHTQLRGPDSKDSPKDREVAEGGLPRAESPSPAPPPGLRGTLDLQVIRVRMEEPPAVSLLQDWSRHPQGTKRVGAGDTSDWPTVLSESSTTVAGKPEKGNGV
- stoichiometry N [8]: 2

B4: Flag-SPIN•DOC wild type (natural protein, UniProt Q9BUA3 1-381, looked up)
chain: B3 chain
- stoichiometry N [9]: 2

B5: GFP-SPIN•DOC wild type (natural protein, UniProt Q9BUA3 1-381, looked up)
chain: B3 chain
- stoichiometry N [9]: 2

Other lines, results leading:

- binding result [1]: binds
- fold decrease of binding affinity in the presence of DOCpep(1-3) [2]: ~17 fold
Binder: ART[Lys(Me3)]QTAR[Lys(Me)]STGGKA [histone H3 1-15 K4me3K9me1 peptide]

- binding result [4]: binds
- binding result [5]: binds
- Kd [3]: 31 µM
- binding result [6]: binds
Binder: VRKKRGRPMTKN (peptide, UniProt Q9BUA3 228-239, looked up) [DOCpep2, SPIN•DOC 228-239 peptide]

- Kd [3]: 7.6 µM
- stoichiometry N [3]: 0.5
B1: SPIN•DOC 184-240, the whole K/R-rich region (domain or fragment)
chain: NPSLPKRSRPRGLRPLELPAVPATEPGNKKPRGQRWKEPPGEEPVRKKRGRPMTKNL

- binding result [7]: binds
B2: SPIN•DOC 188-281, DOCpep(1-3) (domain or fragment)
chain: PKRSRPRGLRPLELPAVPATEPGNKKPRGQRWKEPPGEEPVRKKRGRPMTKNLDPDPEPPSPDSPTETFAAPAEVRHFTDGSFPAGFVLQLFSH

- binding result [1]: binds
Binder: ART[Lys(Me3)]QTAR[Lys(Me3)]STGGKA [histone H3 1-15 K4me3K9me3 peptide]

- binding result [1]: binds
- fold decrease of binding affinity in the presence of DOCpep(1-3) [2]: ~4.5 fold
Binder: ART[Lys(Me3)]QTAR[Lys(Me2)]STGGKA [histone H3 1-15 K4me3K9me2 peptide]
